Test results: patent US20240317858A1 (Adimab, published 2024)
Changes are numbered by the printed parent chain.

B1: Antibody No. A001 (ADI-26906) IgG1 (antibody, V domains shown)
VH: QVQLVQSGAEVKKPGASVKVSCKASGFNIKDYYMHWVRQAPGQRLEWMGWIDLENANTIYDAKFQGRVTITRDTSASTAYMELSSLRSEDTAVYYCARDAYGRYFYDVWGQGTLVTVSS
VL: DIVMTQSPDSLAVSLGERATINCKSSQSLLNARTGKNYLAWYQQKPGQPPKLLIYWASTRESGVPDRFSGSGSGTDFTLTISSLQAEDVAVYYCKQSYSRRTFGGGTKVEIK
notes: IgG1, CHO-produced
B2: Antibody No. V005 (ADI-67448) IgG1 (antibody, V domains shown)
VH: B1 VH with K30D, A56D
VL: B1 VL
notes: IgG1, CHO-produced; VH as printed is identical to that of V004
B3: Antibody No. V011 (ADI-70328) IgG1 (antibody, V domains shown)
VH: B1 VH with K30D, M48I, A56D, I59V
VL: B1 VL with T5S, E61S, K95V, S99F
notes: IgG1, CHO-produced
B4: Antibody No. V002 (ADI-67445) IgG1 (antibody, V domains shown)
VH: B1 VH with N57E, G66D, V108E
VL: B1 VL
notes: IgG1, CHO-produced
B5: Antibody No. V008 (ADI-70325) IgG1 (antibody, V domains shown)
VH: B1 VH with M48I, N57E, I59V, G66D
VL: B1 VL with T5S, E61S, K95V, S99F
notes: IgG1, CHO-produced
B6: Antibody No. V012 (ADI-70329) IgG1 (antibody, V domains shown)
VH: B1 VH with I29D, M48I, N57E, I59V, G66D
VL: B1 VL with T5S, E61S, K95V, S99F
notes: IgG1, CHO-produced
B7: Antibody No. V003 (ADI-67446) IgG1 (antibody, V domains shown)
VH: B1 VH with N28D, D52E, N57D
VL: B1 VL
notes: IgG1, CHO-produced
B8: Antibody No. A002 (ADI-50024) IgG1 (antibody, V domains shown)
VH: B1 VH with M48I, I59V
VL: B1 VL with T5S, E61S, K95V, S99F
notes: IgG1, CHO-produced
B9: Antibody No. V007 (ADI-67450) IgG1 (antibody, V domains shown)
VH: B1 VH with K30D, Y60D
VL: B1 VL
notes: IgG1, CHO-produced
B10: Antibody No. V013 (ADI-70330) IgG1 (antibody, V domains shown)
VH: B1 VH with K30D, M48I, I59V, Y60D
VL: B1 VL with T5S, E61S, K95V, S99F
notes: IgG1, CHO-produced
B11: Antibody No. V009 (ADI-70326) IgG1 (antibody, V domains shown)
VH: B1 VH with N28D, M48I, D52E, N57D, I59V
VL: B1 VL with T5S, E61S, K95V, S99F
notes: IgG1, CHO-produced
B12: Antibody No. V010 (ADI-70327) IgG1 (antibody, V domains shown)
VH: B1 VH with N28D, M48I, D52E, A56D, N57D, I59V
VL: B1 VL with T5S, E61S, K95V, S99F
notes: IgG1, CHO-produced
B13: Antibody No. V006 (ADI-67449) IgG1 (antibody, V domains shown)
VH: B1 VH with I29D, N57E, G66D
VL: B1 VL
notes: IgG1, CHO-produced

biological target: T1, Cynomolgus CD3 on HSC-F cells (cynomolgus, UniProt Q95LI5 22-198); assay: flow cytometry, 100 nM IgG
T1 construct: whole, on cells; Target is the endogenous CD3 complex on cells; also called Cyno CD3 HSC-F cells; Cyno CD3+ HSC-F cells
T1 sequence (Q95LI5 22-198): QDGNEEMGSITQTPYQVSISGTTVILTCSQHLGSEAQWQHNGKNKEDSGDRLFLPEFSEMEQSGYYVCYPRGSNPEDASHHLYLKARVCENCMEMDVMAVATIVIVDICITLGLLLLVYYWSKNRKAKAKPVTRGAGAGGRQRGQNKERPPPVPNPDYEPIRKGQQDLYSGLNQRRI
Protocol: (§1) Specificity of the anti-CD3 antibodies for human CD3+ Jurkat cells and Cynomolgus monkey HSC-F cells was determined using a FACS cell binding assay. Briefly, cells were thawed and washed with cold PBSF buffer (PBS+0.1% BSA, pH 7.4). About 200,000 cells were aliquoted per well of a 96-well plate and pelleted by centrifugation (5 minutes at 500×g). The cells were washed and resuspended in 100 μl PBSF with CHO-produced anti-CD3 IgG antibody (100 nM). The mixture (cells+antibody) was incubated for 20 minutes on ice, then washed twice with PBSF. Cells were resuspended in 50 μl of propidium iodide (1:500 dilution) and anti-human IgG-RPE (1:100 dilution) prepared in PBSF, then incubated for 20 minutes on ice in the dark before cells were washed twice with PBSF. Binding was analyzed on FACS Canto II. Also shown are results using cells without CD3 [CHO-S cells, Jurkat CD3 knockout (CD3−) cells, and HEK cells] for comparison, including results with Jurkat CD3-cells combined with anti-CD3 antibody Fab fragments (100 nM).

| MFI | Binder |
| --- | --- |
| 6050 MFI | B1 |
| 5940 MFI | B2 |
| 5910 MFI | B3 |
| 5960 MFI | B4 |
| 6400 MFI | B5 |
| 5800 MFI | B6 |
| 6010 MFI | B7 |
| 6310 MFI | B8 |
| 5490 MFI | B9 |
| 5740 MFI | B10 |
| 6230 MFI | B11 |
| 5860 MFI | B12 |
| 5750 MFI | B13 |

biological target: T2, Human CD3 on CD3+ Jurkat cells (human, UniProt P07766 23-207); assay: flow cytometry, 100 nM IgG
T2 construct: whole, on cells; Target is the endogenous CD3 complex on cells; also called Human CD3+ Jurkat cells
T2 sequence (P07766 23-207): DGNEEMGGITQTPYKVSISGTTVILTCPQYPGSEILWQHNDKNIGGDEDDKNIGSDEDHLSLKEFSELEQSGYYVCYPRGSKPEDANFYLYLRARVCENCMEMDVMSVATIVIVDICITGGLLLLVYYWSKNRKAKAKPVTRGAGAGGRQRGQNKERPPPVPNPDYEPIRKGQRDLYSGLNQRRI
Protocol: as §1

| MFI | Binder |
| --- | --- |
| 3150 MFI | B1 |
| 3150 MFI | B2 |
| 3000 MFI | B3 |
| 3040 MFI | B4 |
| 3200 MFI | B5 |
| 3020 MFI | B6 |
| 3020 MFI | B7 |
| 3410 MFI | B8 |
| 2930 MFI | B9 |
| 2950 MFI | B10 |
| 3070 MFI | B11 |
| 2910 MFI | B12 |
| 3040 MFI | B13 |

biological target: T1, Cynomolgus CD3 on HSC-F cells; assay: flow cytometry, 100 nM IgG1, pH 7.4
Protocol: (§2) Cell binding assays. CD3+ human Jurkat cells (ATCC) and CHO-S cells (Invitrogen/ThermoFisher) were thawed and washed with cold PBSF buffer, pH 7.4 (PBS+0.1% BSA, pH 7.4). About 200,000 cells were aliquoted per well of a 96-well plate (FACS Assay Plate VWR BD 353263) and pelleted by centrifugation (5 minutes at 500×g). The cells were washed with either PBSF pH 7.4 or PBSF pH 6.0 (PBS+0.1% BSA, pH 6.0), and then resuspended in 100 μl in either PBSF pH 7.4 or PBSF pH 6.0 with IgG1 antibody (100 nM) produced in yeast as described above or in CHO cells. The mixture (cells+antibody) was incubated for 20 minutes on ice, then washed twice with either PBSF pH 7.4 or PBSF pH 6.0. Cells were resuspended in 50 μl of propidium iodide (Roche; 1:500 dilution) and anti-human IgG-RPE (Southern Biotech; 1:100 dilution) prepared in either PBSF pH 7.4 or PBSF pH 6.0, then incubated for 20 minutes on ice in the dark before cells were washed twice with either PBSF pH 7.4 or PBSF pH 6.0. Binding was analyzed on FACS Canto II.
(§3) Anti-CD3 antibodies A001-A005, V002, V004, V007, V009, V010, V013, and V014-V019 were produced as IgG1s in CHO cells, and binding to human CD3+ Jurkat cells and cynomolgus CD3+ HSC-F cells at pH 7.4 was analyzed by flow cytometry as described in Example 2. NCB (Normalized Cell Binding) values were calculated based on control and sample MFI values as NCB={(Sample MFI)−(Secondary only MFI)}/(Secondary only MFI).

| NCB (Normalized Cell Binding) | Binder |
| --- | --- |
| 400 | B1 |
| 388 | B4 |
| 417 | B8 |
| 368 | B9 |
| 374 | B10 |
| 396 | B11 |
| 378 | B12 |

biological target: T2, Human CD3 on CD3+ Jurkat cells; assay: flow cytometry, 100 nM IgG1, pH 7.4
Protocol: as §2, §3

| NCB (Normalized Cell Binding) | Binder |
| --- | --- |
| 289 | B1 |
| 320 | B4 |
| 366 | B8 |
| 287 | B9 |
| 295 | B10 |
| 309 | B11 |
| 298 | B12 |
